By Kd is commonly meant the constant that tells how readily two partners part at equilibrium. One may read the koff as the rate constant with which the complex falls apart. The kon is the second-order rate constant of association.

For 14 molecules, Kd, koff and kon results are on record in patent US20100260668A1 (published 2010).

The labels stand for the following.
B1: DVD450 (bispecific antibody, human IgG1, kappa)
heavy: not shown
light: DIQMTQSPSSLSASVGDRVTITCRASQDVSTAVAWYQQKPGKAPKLLIYSASFLYSGVPSRFSGSGSGTDFTLTISSLQPEDFATYYCQQSYTTPPTFGQGTKVEIKRTVAAPSVFIFPPDIVMTQSPDSLAVSLGERATISCRASESVDNYGISFMKWFQQKPGQPPKLLIYAASNQGSGVPDRFSGSGSGTDFTLTISSLQAEDVAVYYCQQSKEVPWTFGGGTKVEIKRTVAAPSVFIFPPSDEQLKSGTASVVCLLNNFYPREAKVQWKVDNALQSGNSQESVTEQDSKDSTYSLSSTLTLSKADYEKHKVYACEVTHQGLSSPVTKSFNRGEC
notes: HC linker long, LC linker long; also called DVD-Ig DVD450
B2: DVD462 (bispecific antibody, human IgG1, kappa)
heavy: not shown
light: DIQMTQSPSSLSASVGDRVTITCRASQDVSTAVAWYQQKPGKAPKLLIYSASFLYSGVPSRFSGSGSGTDFTLTISSLQPEDFATYYCQQSYTTPPTFGQGTKVEIKRTVAAPSVFIFPPDIVMTQSPDSLAVSLGERATISCRASESVDNYGISFMKWFQQKPGQPPKLLIYAASNQGSGVPDRFSGSGSGTDFTLTISSLQAEDVAVYYCQQSKEVPWTFGGGTKVEIKRTVAAPSVFIFPPSDEQLKSGTASVVCLLNNFYPREAKVQWKVDNALQSGNSQESVTEQDSKDSTYSLSSTLTLSKADYEKHKVYACEVTHQGLSSPVTKSFNRGEC
notes: HC linker short, LC linker long; also called DVD-Ig DVD462
B3: DVD520 (bispecific antibody, human IgG1, kappa, lambda)
heavy: not shown
light: DIQMTQSPSSLSASVGDRVTITCRASQDVSTAVAWYQQKPGKAPKLLIYSASFLYSGVPSRFSGSGSGTDFTLTISSLQPEDFATYYCQQSYTTPPTFGQGTKVEIKRTVAAPSVFIFPPQAVVTQESALTTSPGETVTLTCRSSTGAVTTSNYANWVQEKPDHLFTGLIGGTNNRAPGVPARFSGSLIGDKAALTITGAQTEDEAIYFCALWYSNHWVFGGGTKLTVLGQPKAAPSVTLFPPSSEELQANKATLVCLISDFYPGAVTVAWKADSSPVKAGVETTTPSKQSNNKYAASSYLSLTPEQWKSHRSYSCQVTHEGSTVEKTVAPTECS
notes: HC linker long, LC linker long; also called DVD-Ig DVD520
B4: DVD532 (bispecific antibody, human IgG1, kappa, lambda)
heavy: not shown
light: DIQMTQSPSSLSASVGDRVTITCRASQDVSTAVAWYQQKPGKAPKLLIYSASFLYSGVPSRFSGSGSGTDFTLTISSLQPEDFATYYCQQSYTTPPTFGQGTKVEIKRTVAAPSVFIFPPQAVVTQESALTTSPGETVTLTCRSSTGAVTTSNYANWVQEKPDHLFTGLIGGTNNRAPGVPARFSGSLIGDKAALTITGAQTEDEAIYFCALWYSNHWVFGGGTKLTVLGQPKAAPSVTLFPPSSEELQANKATLVCLISDFYPGAVTVAWKADSSPVKAGVETTTPSKQSNNKYAASSYLSLTPEQWKSHRSYSCQVTHEGSTVEKTVAPTECS
notes: HC linker short, LC linker long; also called DVD-Ig DVD532
B5: DVD501 (bispecific antibody, human IgG1, kappa)
heavy: not shown
light: DIQMTQSSSYLSVSLGGRVTITCKASDHINNWLAWYQQKPGNAPRLLISGATSLETGVPSRFSGSGSGKDYTLSITSLQTEDVATYYCQQYWSIPLTFGAGTKLELKRTVAAPDIQMTQSPSSLSASVGDRVTITCRASQDVSTAVAWYQQKPGKAPKLLIYSASFLYSGVPSRFSGSGSGTDFTLTISSLQPEDFATYYCQQSYTTPPTFGQGTKVEIKRTVAAPSVFIFPPSDEQLKSGTASVVCLLNNFYPREAKVQWKVDNALQSGNSQESVTEQDSKDSTYSLSSTLTLSKADYEKHKVYACEVTHQGLSSPVTKSFNRGEC
notes: HC linker long, LC linker short; also called DVD-Ig DVD501
B6: DVD466 (bispecific antibody, human IgG1, kappa)
heavy: not shown
light: DIQMTQSPSSLSASVGDRVTITCRASQDVSTAVAWYQQKPGKAPKLLIYSASFLYSGVPSRFSGSGSGTDFTLTISSLQPEDFATYYCQQSYTTPPTFGQGTKVEIKRTVAAPDIQMTQSPSSLSASVGDRVTITCRASQDVSTAVAWYQQKPGKAPKLLIYSASFLYSGVPSRFSGSGSGTDFTLTISSLQPEDFATTYYCQQSYTGTVTFGQGTKVEIKRTVAAPSVFIFPPSDEQLKSGTASVVCLLNNFYPREAKVQWKVDNALQSGNSQESVTEQDSKDSTYSLSSTLTLSKADYEKHKVYACEVTHQGLSSPVTKSFNRGEC
notes: HC linker short, LC linker short; also called DVD-Ig DVD466
B7: DVD478 (bispecific antibody, human IgG1, kappa)
heavy: not shown
light: DIQMTQSPSSLSASVGDRVTITCRASQDVSTAVAWYQQKPGKAPKLLIYSASFLYSGVPSRFSGSGSGTDFTLTISSLQPEDFATYYCQQSYTTPPTFGQGTKVEIKRTVAAPDIQMTQSPSSLSASVGDRVTITCRASQDVSTAVAWYQQKPGKAPKLLIYSASFLYSGVPSRFSGSGSGTDFTLTISSLQPEDFATTYYCQQSYTGTVTFGQGTKVEIKRTVAAPSVFIFPPSDEQLKSGTASVVCLLNNFYPREAKVQWKVDNALQSGNSQESVTEQDSKDSTYSLSSTLTLSKADYEKHKVYACEVTHQGLSSPVTKSFNRGEC
notes: HC linker long, LC linker short; also called DVD-Ig DVD478
B8: DVD514 (bispecific antibody, human IgG1, lambda)
heavy: not shown
light: DIQMTQSPSSLSASVGDRVTITCRASQDVSTAVAWYQQKPGKAPKLLIYSASFLYSGVPSRFSGSGSGTDFTLTISSLQPEDFATYYCQQSYTTPPTFGQGTKVEIKRTVAAPQAVVTQESALTTSPGETVTLTCRSSTGAVTTSNYANWVQEKPDHLFTGLIGGTNNRAPGVPARFSGSLIGDKAALTITGAQTEDEAIYFCALWYSNHWVFGGGTKLTVLGQPKAAPSVTLFPPSSEELQANKATLVCLISDFYPGAVTVAWKADSSPVKAGVETTTPSKQSNNKYAASSYLSLTPEQWKSHRSYSCQVTHEGSTVEKTVAPTECS
notes: HC linker short, LC linker short; also called DVD-Ig DVD514
B9: DVD526 (bispecific antibody, human IgG1, lambda)
heavy: not shown
light: DIQMTQSPSSLSASVGDRVTITCRASQDVSTAVAWYQQKPGKAPKLLIYSASFLYSGVPSRFSGSGSGTDFTLTISSLQPEDFATYYCQQSYTTPPTFGQGTKVEIKRTVAAPQAVVTQESALTTSPGETVTLTCRSSTGAVTTSNYANWVQEKPDHLFTGLIGGTNNRAPGVPARFSGSLIGDKAALTITGAQTEDEAIYFCALWYSNHWVFGGGTKLTVLGQPKAAPSVTLFPPSSEELQANKATLVCLISDFYPGAVTVAWKADSSPVKAGVETTTPSKQSNNKYAASSYLSLTPEQWKSHRSYSCQVTHEGSTVEKTVAPTECS
notes: HC linker long, LC linker short; also called DVD-Ig DVD526
B10: DVD444 (bispecific antibody, human IgG1, kappa)
heavy: not shown
light: DIQMTQSPSSLSASVGDRVTITCRASQDVSTAVAWYQQKPGKAPKLLIYSASFLYSGVPSRFSGSGSGTDFTLTISSLQPEDFATYYCQQSYTTPPTFGQGTKVEIKRTVAAPDIVMTQSPDSLAVSLGERATISCRASESVDNYGISFMKWFQQKPGQPPKLLIYAASNQGSGVPDRFSGSGSGTDFTLTISSLQAEDVAVYYCQQSKEVPWTFGGGTKVEIKRTVAAPSVFIFPPSDEQLKSGTASVVCLLNNFYPREAKVQWKVDNALQSGNSQESVTEQDSKDSTYSLSSTLTLSKADYEKHKVYACEVTHQGLSSPVTKSFNRGEC
notes: HC linker short, LC linker short; also called DVD-Ig DVD444
B11: DVD456 (bispecific antibody, human IgG1, kappa)
heavy: not shown
light: DIQMTQSPSSLSASVGDRVTITCRASQDVSTAVAWYQQKPGKAPKLLIYSASFLYSGVPSRFSGSGSGTDFTLTISSLQPEDFATYYCQQSYTTPPTFGQGTKVEIKRTVAAPDIVMTQSPDSLAVSLGERATISCRASESVDNYGISFMKWFQQKPGQPPKLLIYAASNQGSGVPDRFSGSGSGTDFTLTISSLQAEDVAVYYCQQSKEVPWTFGGGTKVEIKRTVAAPSVFIFPPSDEQLKSGTASVVCLLNNFYPREAKVQWKVDNALQSGNSQESVTEQDSKDSTYSLSSTLTLSKADYEKHKVYACEVTHQGLSSPVTKSFNRGEC
notes: HC linker long, LC linker short; also called DVD-Ig DVD456
B12: DVD507 (bispecific antibody, human IgG1, kappa, L234A L235A)
heavy: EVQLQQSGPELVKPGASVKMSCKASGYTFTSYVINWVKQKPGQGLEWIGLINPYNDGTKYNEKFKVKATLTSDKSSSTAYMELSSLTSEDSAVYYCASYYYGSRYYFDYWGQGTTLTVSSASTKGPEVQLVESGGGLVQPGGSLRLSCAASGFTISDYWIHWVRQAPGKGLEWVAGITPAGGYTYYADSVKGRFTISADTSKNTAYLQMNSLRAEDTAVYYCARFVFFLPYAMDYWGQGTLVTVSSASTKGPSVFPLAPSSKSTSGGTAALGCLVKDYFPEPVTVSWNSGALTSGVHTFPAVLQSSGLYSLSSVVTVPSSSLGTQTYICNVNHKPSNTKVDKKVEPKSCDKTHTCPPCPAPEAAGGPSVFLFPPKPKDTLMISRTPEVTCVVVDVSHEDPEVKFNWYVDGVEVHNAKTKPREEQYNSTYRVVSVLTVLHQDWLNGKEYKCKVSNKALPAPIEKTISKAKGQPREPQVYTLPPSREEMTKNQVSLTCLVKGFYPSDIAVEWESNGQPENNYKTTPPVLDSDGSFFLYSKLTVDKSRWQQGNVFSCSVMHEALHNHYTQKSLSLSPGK
light: DIQMTQSSSYLSVSLGGRVTITCKASDHINNWLAWYQQKPGNAPRLLISGATSLETGVPSRFSGSGSGKDYTLSITSLQTEDVATYYCQQYWSIPLTFGAGTKLELKRTVAAPSVFIFPPDIQMTQSPSSLSASVGDRVTITCRASQDVSTAVAWYQQKPGKAPKLLIYSASFLYSGVPSRFSGSGSGTDFTLTISSLQPEDFATYYCQQSYTTPPTFGQGTKVEIKRTVAAPSVFIFPPSDEQLKSGTASVVCLLNNFYPREAKVQWKVDNALQSGNSQESVTEQDSKDSTYSLSSTLTLSKADYEKHKVYACEVTHQGLSSPVTKSFNRGEC
notes: HC linker short, LC linker long; also called DVD-Ig DVD507
B13: DVD472 (bispecific antibody, human IgG1, kappa)
heavy: not shown
light: DIQMTQSPSSLSASVGDRVTITCRASQDVSTAVAWYQQKPGKAPKLLIYSASFLYSGVPSRFSGSGSGTDFTLTISSLQPEDFATYYCQQSYTTPPTFGQGTKVEIKRTVAAPSVFIFPPDIQMTQSPSSLSASVGDRVTITCRASQDVSTAVAWYQQKPGKAPKLLIYSASFLYSGVPSRFSGSGSGTDFTLTISSLQPEDFATTYYCQQSYTGTVTFGQGTKVEIKRTVAAPSVFIFPPSDEQLKSGTASVVCLLNNFYPREAKVQWKVDNALQSGNSQESVTEQDSKDSTYSLSSTLTLSKADYEKHKVYACEVTHQGLSSPVTKSFNRGEC
notes: HC linker long, LC linker long; also called DVD-Ig DVD472
B14: DVD484 (bispecific antibody, human IgG1, kappa)
heavy: not shown
light: DIQMTQSPSSLSASVGDRVTITCRASQDVSTAVAWYQQKPGKAPKLLIYSASFLYSGVPSRFSGSGSGTDFTLTISSLQPEDFATYYCQQSYTTPPTFGQGTKVEIKRTVAAPSVFIFPPDIQMTQSPSSLSASVGDRVTITCRASQDVSTAVAWYQQKPGKAPKLLIYSASFLYSGVPSRFSGSGSGTDFTLTISSLQPEDFATTYYCQQSYTGTVTFGQGTKVEIKRTVAAPSVFIFPPSDEQLKSGTASVVCLLNNFYPREAKVQWKVDNALQSGNSQESVTEQDSKDSTYSLSSTLTLSKADYEKHKVYACEVTHQGLSSPVTKSFNRGEC
notes: HC linker short, LC linker long; also called DVD-Ig DVD484

In this assay the target is T1, DLL4 ECD His tag (UniProt Q9NR61 27-529, limits assumed).
T1 construct: extracellular domain; also called DLL ECD His tag
As to the kind of experiment: SPR (Biacore), DVD-Ig captured, DLL4 as analyte.
On to B1, for which the Kd amounted to 7.41 nM, the koff worked out at 0.000251 s⁻¹ and the kon worked out at 33800 M⁻¹ s⁻¹.
As to B2, the affinity, expressed as Kd, was 2.98 nM; the koff was determined as 0.00025 s⁻¹; the association rate constant (kon) was determined as 83900 M⁻¹ s⁻¹.
B3 showed a Kd of 3.3 nM, a koff of 0.000408 s⁻¹ and a kon of 124000 M⁻¹ s⁻¹.
Turning to B4, the Kd is 6.85 nM, the koff was determined as 0.00081 s⁻¹ and the kon was determined as 118000 M⁻¹ s⁻¹.
Molecule B5 showed a dissociation constant Kd of 0.302 nM, a koff of 8.14e-05 s⁻¹ and a kon of 270000 M⁻¹ s⁻¹.
In turn, B6 gave a Kd of 1.25 nM, a koff of 0.000139 s⁻¹ and a kon of 111000 M⁻¹ s⁻¹.
On the same counts, the results for B7 are 2.22 nM, 0.000167 s⁻¹ and 75200 M⁻¹ s⁻¹.
The molecule B8 had a Kd of 3.48 nM, a koff of 0.000432 s⁻¹ and a kon of 124000 M⁻¹ s⁻¹.
With B9, the Kd was determined as 5.55 nM, the koff worked out at 0.000629 s⁻¹ and the kon was 113000 M⁻¹ s⁻¹.
The corresponding values for B10 are 2.37 nM, 0.00034 s⁻¹ and 143000 M⁻¹ s⁻¹.
For the molecule B11, binding was put at a Kd of 1.66 nM, the koff is 0.000174 s⁻¹ and the kon is 104000 M⁻¹ s⁻¹.
For B12, the Kd came to 0.265 nM, the koff worked out at 7.16e-05 s⁻¹ and the kon turned out to be 270000 M⁻¹ s⁻¹.
B13: binding was characterised by a dissociation constant (Kd) of 0.881 nM, the koff came to 8.64e-05 s⁻¹ and the kon came out at 98000 M⁻¹ s⁻¹.
Take B14: the affinity, expressed as Kd, was 2.96 nM; the koff is 0.000295 s⁻¹; the kon was 99700 M⁻¹ s⁻¹.
